# Where a chain is given by its changes, count along the chain named.
# B1: MAK<humanHER3> M-7.2.42 (antibody, V domains shown)
# VH: EVQLLQSGPELVKPGASVKMSCKASGYTFTDYNLHWVKQSHGRTLEWIGYFNPYNGGTFYTQKFKDKATLTINKSSSTAYMELRSLTSEDSAVYYCTRRYFDGSSYFDYWGQGTTLTVSS
# VL: DVLMTQTPLSLPVSLGDQASISCRSSQTIVHSNGNTYLEWYVQKPGQSLKLLIYKVSNRFSGVPDRFSGSGSGTDFTLKISRVEAEDLGVYYCFQGSHVPRAFGGGTKLEIKR
# notes: Tested as crude hybridoma supernatant in the Biacore screening; also called HER3 monoclonal antibody MAK<humanHER3> M-7.2.42
# B2: MAK<humanHER3> M-7.3.8 (antibody, V domains shown)
# VH: B1 VH with L5Q, V12A, R43K, P53T, T58I, Q112R
# VL: B1 VL with T7I, T28S, L49P, V99A, A102T
# notes: Tested as crude hybridoma supernatant in the Biacore screening; also called antibody 7.3.8; HER3 monoclonal antibody MAK<humanHER3> M-7.3.8
# Columns and labels:
# HER2 = biological target: T1, HER2 (UniProt P04626 23-1255, limits assumed); assay: IHC on FFPE transfected HEK293 cells, Ventana Benchmark XT
# T1 construct: whole, on cells
# Experimental: (§1) The suitability of the newly developed HER3 monoclonal antibodies MAK<humanHER3> M-7.2.42 and MAK<humanHER3> M-7.3.8 was shown using FFPE cell line controls. Therefore HER1, HER2, HER3 or HER4 transfected or untransfected HEK293 cells, respectively, were fixed with 4% PBS buffered formaldehyde and were subsequently embedded in paraffin.
# (§2) All staining procedures were performed on the Ventana Benchmark XT automated IHC stainer using Ventana buffers and reagents, i.e., amongst others, the standard cell conditioning 1 (CC1) reagent for sample preparation and ultraView DAB as detection system.
# (§3) As obvious from FIG. 3 the newly developed HER3 monoclonal antibodies MAK<humanHER3> M-7.2.42 and MAK<humanHER3> M-7.3.8 show specific membrane staining only on HER3 transfected cells. HER1, HER2 and HER4-transfected cells and control cells are negative. HER3 monoclonal antibodies MAK<humanHER3> M-7.2.42 and MAK<humanHER3> M-7.3.8 show good IHC-staining with HER3 transfected cells if used according to standard protocols on the Ventana Benchmark XT analyzer (see FIG. 3, HER3 captioned cell staining).
# HER4 = biological target: T2, HER4 (UniProt Q15303 26-1308, limits assumed); assay: as above
# T2 construct: whole, on cells
# T2 sequence (Q15303 26-1308 limits assumed): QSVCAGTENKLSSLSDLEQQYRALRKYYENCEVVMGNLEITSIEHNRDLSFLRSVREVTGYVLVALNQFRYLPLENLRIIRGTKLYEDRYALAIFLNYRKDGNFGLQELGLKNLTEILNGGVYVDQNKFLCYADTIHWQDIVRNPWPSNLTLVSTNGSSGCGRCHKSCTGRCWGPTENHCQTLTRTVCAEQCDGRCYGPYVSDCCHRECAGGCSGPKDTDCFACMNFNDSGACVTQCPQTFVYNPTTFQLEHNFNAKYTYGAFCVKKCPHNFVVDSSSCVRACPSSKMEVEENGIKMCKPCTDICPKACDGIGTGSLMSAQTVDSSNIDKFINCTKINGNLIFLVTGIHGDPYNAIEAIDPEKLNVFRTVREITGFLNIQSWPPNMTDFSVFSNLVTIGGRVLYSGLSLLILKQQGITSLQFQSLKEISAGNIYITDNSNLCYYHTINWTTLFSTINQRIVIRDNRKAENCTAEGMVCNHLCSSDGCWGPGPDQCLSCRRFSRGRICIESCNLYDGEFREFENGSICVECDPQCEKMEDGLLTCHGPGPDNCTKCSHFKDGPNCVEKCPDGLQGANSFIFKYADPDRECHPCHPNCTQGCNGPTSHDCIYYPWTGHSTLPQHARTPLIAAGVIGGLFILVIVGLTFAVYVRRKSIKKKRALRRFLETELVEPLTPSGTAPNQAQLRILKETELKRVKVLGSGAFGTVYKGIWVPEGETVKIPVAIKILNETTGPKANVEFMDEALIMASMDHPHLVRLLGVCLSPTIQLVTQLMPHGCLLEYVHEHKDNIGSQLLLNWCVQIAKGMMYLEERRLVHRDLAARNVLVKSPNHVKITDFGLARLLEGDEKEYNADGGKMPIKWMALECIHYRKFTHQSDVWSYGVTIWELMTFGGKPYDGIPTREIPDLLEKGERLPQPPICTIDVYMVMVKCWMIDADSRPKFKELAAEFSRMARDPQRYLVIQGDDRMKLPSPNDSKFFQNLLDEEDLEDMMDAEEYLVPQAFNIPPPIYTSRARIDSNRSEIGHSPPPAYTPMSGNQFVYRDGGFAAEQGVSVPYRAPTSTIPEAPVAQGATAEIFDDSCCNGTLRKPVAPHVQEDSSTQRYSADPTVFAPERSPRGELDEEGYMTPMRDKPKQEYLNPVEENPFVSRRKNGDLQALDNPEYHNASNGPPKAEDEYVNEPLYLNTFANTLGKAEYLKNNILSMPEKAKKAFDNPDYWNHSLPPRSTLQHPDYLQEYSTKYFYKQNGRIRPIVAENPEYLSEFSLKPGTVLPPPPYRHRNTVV
# Experimental: as §1, §2, §3
# HER1 [1] = biological target: T3, HER1 (UniProt P00533 25-1210, limits assumed); assay: Western blot on lysates of transfected HEK293 cells, RT and 37 C
# T3 construct: whole, on cells; also called EGFR
# Experimental: Lysates were prepared from several HEK293 control cell lines. The cells were transiently transfected with plasmids coding for HER1, HER2, HER3 or HER4. HEK293 cells transfected with the mammalian expression vector pRK5 were used as negative control. For western blotting 10 μg protein lysates were loaded per lane on 4-12% NuPage SDS gels (Invitrogen). Western blotting was performed according to standard protocols with standard NuPage buffers and reagents (Invitrogen). After blocking the membrane was incubated with MAK<humanHER3> M-7.2.42, MAK<humanHER3> M-7.3.8 or the HER3 monoclonal antibody DAK-H3-IC from Dako. MAK<humanHER3> M-7.2.42 and MAK<humanHER3> M-7.3.8 were used at a concentration of lng/ml. Primary antibody incubation was performed for 60 min at RT and at 37° C. HRP-conjugated anti-mouse Fab was used as secondary antibody. The dilution of DAK-H3-IC antibody was made as recommended by its manufacturer and the choice of secondary (detection) antibody was adapted as required. The membrane was developed with ECL (Amersham) and exposed to an x-ray film.
# [2] = biological target: T4, biotinylated HER3 peptide (screening peptide with a sequence corresponding to the immunogen); assay: Biacore A100 SPR, antibody captured from hybridoma supernatant on anti-mouse Fc, streptavidin-grafted biotinylated HER3 peptide as analyte, 25 C
# T4 construct: Synthetic peptide of HER3; also called HER3 antigen peptide; peptide-graft
# Experimental: For selection of suitable antibodies, a kinetic screening was performed on hybridoma culture supernatants. The measurements were done using Biacore SPR technology. The CM5 series S sensor chip was mounted into an A100 instrument (GE Healthcare, Biacore) and was hydrodynamically addressed in HBSN buffer (10 mM HEPES pH 7.4, 150 mM NaCl) according to the manufacturer's instructions. The system buffer was HBS-ET (10 mM HEPES pH 7.4, 150 mM NaCl, 0.05% TWEEN 20). The sample buffer was the system buffer supplemented with 1 mg/ml CMD (Carboxymethyldextrane, Sigma #86524). The system was driven at 25° C.
# 10000 RU RAMIgGFC (relative units of rabbit-anti-mouse F(c)gamma-fragment of the respective mouse immunoglobulin G subclass/Jackson Laboratories) were immobilized according to the manufacturer's instructions using EDC/NHS chemistry on the flow cells FC1 (anti-mouse F(c)gamma of subclass 1), FC2, FC3 and FC4, respectively, on the sensitive spots 1, 2, 4 and 5 on each flow cell. The spots were deactivated using 1M ethanolamine.
# The binding activity of antibodies against the HER3 peptide was kinetically tested. Antibodies were captured by a 1 min injection at 10 μl/min of crude hybridoma supernatants diluted 1:3 in sample buffer. Biotinylated Her-3 peptides were carefully singly grafted on streptavidin to enlarge the molecular weight of the complexes and to increase the mass sensitivity of the system. Since the antigen complex dissociation kd is independent of the analyte injection concentration, this is a legal method to increase the sensitivity of the system.
# HER1 [3] = biological target: T3, HER1; assay: IHC on FFPE transfected HEK293 cells, Ventana Benchmark XT
# Experimental: as §1, §2, §3
Binder,binding result (HER2),binding result (HER4),binding result (HER1 [1]),koff [2] [s⁻¹],t½ diss [2] [h],binding result (HER1 [3])
B1,no binding,no binding,no binding (tested: lng/ml (so in the source)),4.26e-05,4.52,–
B2,no binding,no binding,–,2.66e-05,7.25,no binding

# — patent US20170096487A1 (VENTANA MEDICAL SYSTEMS, published 2017)
